The target in assay [1] is IL-4R-ECD-FLAG (human) (UniProt P24394). The assay is described as follows: ELISA on coated IL-4R-ECD-FLAG (100 ng/ml), HRP goat anti-human secondary.
The target is the same in assay [2]. The assay is described as follows: SPR, Biacore T200; antibody captured on Protein A/G CM5 chip, IL-4R-ECD-FLAG injected.
Assay [3] has as its target Biotinated IL-4R-ECD-hFc (human) (UniProt P24394). The assay is described as follows: blocking ELISA: coated IL-4-hFc (2000 ng/ml), biotinylated IL-4R-ECD-hFc (100 ng/ml) with antibody in dilution series, Streptavidin-HRP.

B1: Dupilumab (antibody, INN chains, looked up, V domains shown)
VH: EVQLVESGGGLEQPGGSLRLSCAGSGFTFRDYAMTWVRQAPGKGLEWVSSISGSGGNTYYADSVKGRFTISRDNSKNTLYLQMNSLRAEDTAVYYCAKDRLSITIRPRYYGLDVWGQGTTVTVSS
VL: DIVMTQSPLSLPVTPGEPASISCRSSQSLLYSIGYNYLDWYLQKSGQSPQLLIYLGSNRASGVPDRFSGSGSGTDFTLKISRVEAEDVGFYYCMQALQTPYTFGQGTKLEIKR
In turn, B1 displayed an EC50 in assay [1] of 0.0125 µg/mL. In assay [2], this molecule returned an equilibrium dissociation constant (Kd) of 671 pM, a koff of 3.95e-05 s⁻¹ and a kon of 58800 M⁻¹ s⁻¹. The molecule further showed a half-inhibitory concentration (IC50) in assay [3] of 0.138 µg/mL.

Source of the values: patent US20210206861A1.
